Test [1] has as its target HLA-A2 on other WT1 negative HLA-A2+ cells (other than 501, A498 and SKMEL; members not named). Briefly: flow cytometry on IM-9 cells (WT1 mRNA -). On the technique in general: Flow cytometry measures light scatter and fluorescence of single cells or particles in a stream.
The target is the same in test [2]. The experiment in a line: flow cytometry on U266 cells (WT1 mRNA -).
For test [3] the target is unchanged. The experiment in a line: flow cytometry on JVM-2 cells (WT1 mRNA -).
The target in test [4] is Unloaded T2 (Homo sapiens). Briefly: flow cytometry, unloaded T2 cells. On the set-up: reference not given here.
The target of test [5] is HLA-A2/MAGE-A4 230-239 complex on cells (human). The experiment in a line: flow cytometry, T2 cells loaded with 10^-4 M peptide.
Test [6] addresses HLA-A2/MAGE-A9 223-231 complex on T2 cells (human). The description is as above.
Test [7] deals with HLA-A2/PAP 112-120 complex on T2 cells (human). The test is described as above.
Test [8] concerns the target HLA-A2 on HLA-A2+ cells that do not express WT1 (tumor cell lines, normal primary cells). Briefly: flow cytometry on SKMEL-5 melanoma cells (WT1 mRNA -).
Test [9] has the same target. Briefly: flow cytometry on A498 cells (WT1 mRNA -).
Test [10] concerns the target HLA-A2 on HLA-A2+/WT1+ BV173 cells (WT1 mRNA positive; WT1 126-134 peptide not detected by mass spectrometry of eluted HLA peptides). The experiment in a line: flow cytometry on BV173 cells (WT1 mRNA +).
The target of test [11] is HLA-A2 on HLA-A2+/WT1+ SET2 cells (WT1 mRNA positive; WT1 126-134 peptide not detected by mass spectrometry of eluted HLA peptides). Briefly: flow cytometry on SET-2 cells (WT1 mRNA +).
Test [12] has as its target HLA-A2/WT1 126-134 complex on T2 cells (human). The experiment in a line: flow cytometry, T2 cells loaded with 10^-4 M WT1 peptide.
Test [13] has as its target HLA-A2 on HLA-A2+ cells that do not express WT1 (tumor cell lines, normal primary cells). Briefly: flow cytometry on 501A melanoma cells (WT1 mRNA -).
The target in test [14] is HLA-A2/Tyrosinase369-377 complex on cells (human). The experiment in a line: flow cytometry, T2 cells loaded with 10^-4 M peptide. Details: reference not given here.
Test [15] addresses P68 … (Homo sapiens). The test is described as above. Details: reference not given here.
The target in test [16] is HLA-A2/WT1-S10 on T2 cells (human). Briefly: flow cytometry, peptide-loaded T2 cells (10^-4-10^-5 M).
The target of test [17] is HLA-A2/WT1-S11 on T2 cells (human). Described as above.
Test [18] concerns the target HLA-A2/WT1-S13 on T2 cells (human). The test is described as above.
For test [19], the target named is HLA-A2/WT1-S16 on T2 cells (human). The description is as above.
The target of test [20] is HLA-A2/WT1-S22 on T2 cells (human). The description is as above.
Test [21] addresses HLA-A2/WT1-S6 on T2 cells (human). The test is described as above.
Test [22] concerns the target HLA-A2/WT1-S7 on T2 cells (human). The description is as above.
Test [23] addresses HLA-A2/WT1 126-134 complex on T2 cells (human). Briefly: flow cytometry, T2 cells loaded with WT1 peptide 1x10e-4M.
For test [24] the target is unchanged. Briefly: flow cytometry, T2 cells loaded with WT1 peptide 1x10e-5M.
Test [25] has the same target. Briefly: flow cytometry, T2 cells loaded with WT1 1x10e-4M in DMSO.
For test [26], the target named is single-chain recombinant HLA-A2/WT1 126-134 complex (human). The experiment in a line: SPR (ProteOn), biotinylated scHLA-A2/WT1 on NeutrAvidin, Fab as analyte; faster dissociation told in words.

Broadly, the Kd is the constant that tells how readily two partners part at equilibrium.

On to ESK1 TCR-like antibody (IgG), for which the MFI in test [1] was found to be 1.2; in test [2], 1.9; in [3], 1; in test [4], 1; in [5], 1.1; in test [6] it was 1. In addition, the MFI stood at 1.1 in [7]; 4.3 in test [8]; 5.2 in [9]; 8.1 in [10]; 26.3 in test [11]; 18 in [12]. Besides, the MFI in [13] is 10.7; in test [14], 1; in test [15], 1; in [16], 1.4; in [17], 1.1; in test [18], 1.1. The MFI came to 1.1 in [19]; 1.1 in test [20]; 5 in [21]; 3.1 in test [22]; 17.9 in test [23]; 1.6 in [24]. This substance also came in with an MFI in test [25] of 17.9.

For the substance ESK1 TCRL Fab, in test [26], the dissociation constant Kd was found to be 200 nM.

(Values after patent US20180171024A1.)
